Legend:
[1] = biological target: SARS-CoV-2 spike (S) protein (SARS-CoV-2) (UniProt P0DTC2); assay: cell-based or functional assay
[2] = biological target: Human IgG (microarray spot); assay: CDI SARS-CoV-2 protein microarray, sample [..]00316 1 ug/mL, positive-control spot Human IgG read by the anti-human IgG secondary, replicate 1
[3] = biological target: ACE2_Fc (microarray spots) (UniProt Q9BYF1); assay: CDI SARS-CoV-2 protein microarray, sample [..]00316 1 ug/mL, positive-control spot ACE2_Fc_0.5 read by the anti-human IgG secondary, replicate 2
[4] = biological target: ACE2_Fc (microarray spots) (UniProt Q9BYF1); assay: CDI SARS-CoV-2 protein microarray, sample [..]00347 1 ug/mL, positive-control spot ACE2_Fc_0.17 read by the anti-human IgG secondary, replicate 1
[5] = biological target: ACE2_Fc (microarray spots) (UniProt Q9BYF1); assay: CDI SARS-CoV-2 protein microarray, sample [..]00316 1 ug/mL, positive-control spot ACE2_Fc_0.17 read by the anti-human IgG secondary, replicate 2
[6] = biological target: Human IgG (microarray spot); assay: CDI SARS-CoV-2 protein microarray, sample [..]00347 1 ug/mL, positive-control spot Human IgG read by the anti-human IgG secondary, replicate 1
[7] = biological target: ACE2_Fc (microarray spots) (UniProt Q9BYF1); assay: CDI SARS-CoV-2 protein microarray, sample [..]00347 1 ug/mL, positive-control spot ACE2_Fc_0.5 read by the anti-human IgG secondary, replicate 1
[8] = biological target: Human IgG (microarray spot); assay: CDI SARS-CoV-2 protein microarray, sample [..]00347 1 ug/mL, positive-control spot Human IgG read by the anti-human IgG secondary, replicate 2
[9] = biological target: ACE2_Fc (microarray spots) (UniProt Q9BYF1); assay: CDI SARS-CoV-2 protein microarray, sample [..]00316 1 ug/mL, positive-control spot ACE2_Fc_0.5 read by the anti-human IgG secondary, replicate 1
[10] = biological target: Human IgG (microarray spot); assay: CDI SARS-CoV-2 protein microarray, sample [..]00316 1 ug/mL, positive-control spot Human IgG read by the anti-human IgG secondary, replicate 2
[11] = biological target: ACE2_Fc (microarray spots) (UniProt Q9BYF1); assay: CDI SARS-CoV-2 protein microarray, sample [..]00347 1 ug/mL, positive-control spot ACE2_Fc_0.5 read by the anti-human IgG secondary, replicate 2
[12] = biological target: ACE2_Fc (microarray spots) (UniProt Q9BYF1); assay: CDI SARS-CoV-2 protein microarray, sample [..]00347 1 ug/mL, positive-control spot ACE2_Fc_0.17 read by the anti-human IgG secondary, replicate 2
[13] = biological target: ACE2_Fc (microarray spots) (UniProt Q9BYF1); assay: CDI SARS-CoV-2 protein microarray, sample [..]00316 1 ug/mL, positive-control spot ACE2_Fc_0.17 read by the anti-human IgG secondary, replicate 1
ACE2_Fc [14] = biological target: ACE2_Fc (UniProt Q9BYF1); assay: protein/peptide microarray, Anti-Hu IgG control alone, replicate 1, spot ACE2_Fc_0.17
S1 (SARS-CoV-2) [15] = biological target: S1 (SARS-CoV-2) (UniProt P0DTC2); assay: protein/peptide microarray, Anti-Hu IgG control alone, replicate 1, spot S1_0.5
ACE2_Fc [16] = biological target: ACE2_Fc (UniProt Q9BYF1); assay: protein/peptide microarray, sample [..]00761 10 ug/mL, replicate 1, positive-control spot ACE2_Fc_0.17 (signal of the anti-human IgG detection)
ACE2_Fc [17] = biological target: ACE2_Fc (UniProt Q9BYF1); assay: protein/peptide microarray, sample [..]00761 10 ug/mL, replicate 2, positive-control spot ACE2_Fc_0.17 (signal of the anti-human IgG detection)
S1 (SARS-CoV-2) [18] = biological target: S1 (SARS-CoV-2) (UniProt P0DTC2); assay: protein/peptide microarray, Anti-Hu IgG control alone, replicate 2, spot S1_0.5
S1 (SARS-CoV-2) [19] = biological target: S1 (SARS-CoV-2) (UniProt P0DTC2); assay: protein/peptide microarray, Anti-Hu IgG control alone, replicate 1, spot S1_0.17
Human IgG (human) [20] = assay: protein/peptide microarray, Anti-Hu IgG control alone, replicate 2, spot Human IgG
Human IgG (human) [21] = assay: protein/peptide microarray, sample [..]00761 10 ug/mL, replicate 1, positive-control spot Human IgG (signal of the anti-human IgG detection)
Human IgG (human) [22] = assay: protein/peptide microarray, Anti-Hu IgG control alone, replicate 1, spot Human IgG
ACE2_Fc [23] = biological target: ACE2_Fc (UniProt Q9BYF1); assay: protein/peptide microarray, Anti-Hu IgG control alone, replicate 1, spot ACE2_Fc_0.5
Human IgG (human) [24] = assay: protein/peptide microarray, sample [..]00761 10 ug/mL, replicate 2, positive-control spot Human IgG (signal of the anti-human IgG detection)
ACE2_Fc [25] = biological target: ACE2_Fc (UniProt Q9BYF1); assay: protein/peptide microarray, sample [..]00761 10 ug/mL, replicate 1, positive-control spot ACE2_Fc_0.5 (signal of the anti-human IgG detection)
ACE2_Fc [26] = biological target: ACE2_Fc (UniProt Q9BYF1); assay: protein/peptide microarray, sample [..]00761 10 ug/mL, replicate 2, positive-control spot ACE2_Fc_0.5 (signal of the anti-human IgG detection)
ACE2_Fc [27] = biological target: ACE2_Fc (UniProt Q9BYF1); assay: protein/peptide microarray, Anti-Hu IgG control alone, replicate 2, spot ACE2_Fc_0.17
ACE2_Fc [28] = biological target: ACE2_Fc (UniProt Q9BYF1); assay: protein/peptide microarray, Anti-Hu IgG control alone, replicate 2, spot ACE2_Fc_0.5
S1 (SARS-CoV-2) [29] = biological target: S1 (SARS-CoV-2) (UniProt P0DTC2); assay: protein/peptide microarray, Anti-Hu IgG control alone, replicate 2, spot S1_0.17

Substance REGN10933 (antibody) has an IC50, SARS-CoV-2 pseudovirus neutralization assay [1] of 0.0841 µg/mL.

For secondary antibody (Anti-Human IgG), the F532 [2] was 212, the F635 [2] was 65500 and the Z-Score [2] was 7.52. It also gave an F532 [3] of 167, an F635 [3] of 65500 and a Z-Score [3] of 7.96. It also gave an F532 [4] of 192, an F635 [4] of 65500 and a Z-Score [4] of 8.93. For the same substance, the F532 [5] was 151, the F635 [5] was 60200 and the Z-Score [5] was 7.32. The F532 [6] was 197, the F635 [6] was 65500 and the Z-Score [6] was 8.93. For the same substance, the F532 [7] was 219, the F635 [7] was 65500 and the Z-Score [7] was 8.93. For the same substance, the F532 [8] was 179, the F635 [8] was 65500 and the Z-Score [8] was 8.89. For the same substance, the F532 [9] was 234, the F635 [9] was 65500 and the Z-Score [9] was 7.52. For the same substance, the F532 [10] was 164, the F635 [10] was 65500 and the Z-Score [10] was 7.97. The F532 [11] was 160, the F635 [11] was 65500 and the Z-Score [11] was 8.89. The F532 [12] was 138, the F635 [12] was 65500 and the Z-Score [12] was 8.89. For the same substance, the F532 [13] was 198, the F635 [13] was 65500 and the Z-Score [13] was 7.52.

Anti-Hu IgG (Control) (antibody) showed an F635 (ACE2_Fc [14]) of 65500, a Z-Score (ACE2_Fc [14]) of 9.27 and an F635 (S1 (SARS-CoV-2) [15]) of 1560. The Z-Score (S1 (SARS-CoV-2) [15]) was 0.1, the F635 (ACE2_Fc [16]) was 65500 and the Z-Score (ACE2_Fc [16]) was 7.28. For the same substance, the F635 (ACE2_Fc [17]) was 65500, the Z-Score (ACE2_Fc [17]) was 7.67 and the F635 (S1 (SARS-CoV-2) [18]) was 1230. It also gave a Z-Score (S1 (SARS-CoV-2) [18]) of 0.06, an F635 (S1 (SARS-CoV-2) [19]) of 1410 and a Z-Score (S1 (SARS-CoV-2) [19]) of 0.08. It also gave an F635 (Human IgG (human) [20]) of 65500, a Z-Score (Human IgG (human) [20]) of 9.27 and an F635 (Human IgG (human) [21]) of 65500. It also gave a Z-Score (Human IgG (human) [21]) of 7.28, an F635 (Human IgG (human) [22]) of 65500 and a Z-Score (Human IgG (human) [22]) of 9.27. For the same substance, the F635 (ACE2_Fc [23]) was 65500, the Z-Score (ACE2_Fc [23]) was 9.27 and the F635 (Human IgG (human) [24]) was 65500. It also gave a Z-Score (Human IgG (human) [24]) of 7.67, an F635 (ACE2_Fc [25]) of 65500 and a Z-Score (ACE2_Fc [25]) of 7.28. It also gave an F635 (ACE2_Fc [26]) of 65500, a Z-Score (ACE2_Fc [26]) of 7.67 and an F635 (ACE2_Fc [27]) of 65500. It also gave a Z-Score (ACE2_Fc [27]) of 9.27, an F635 (ACE2_Fc [28]) of 65500 and a Z-Score (ACE2_Fc [28]) of 9.27. For the same substance, the F635 (S1 (SARS-CoV-2) [29]) was 753 and the Z-Score (S1 (SARS-CoV-2) [29]) was -0.01.
